# Patent US20210380679A1 (INHIBRX BIOSCIENCES, published 2021)
# T1: human DLL3 (Delta-like ligand 3) (human, UniProt Q9NYJ7 27-618)
# T1 construct: endogenous on SHP-77 cells; also called cell-surface DLL3
# T1 sequence: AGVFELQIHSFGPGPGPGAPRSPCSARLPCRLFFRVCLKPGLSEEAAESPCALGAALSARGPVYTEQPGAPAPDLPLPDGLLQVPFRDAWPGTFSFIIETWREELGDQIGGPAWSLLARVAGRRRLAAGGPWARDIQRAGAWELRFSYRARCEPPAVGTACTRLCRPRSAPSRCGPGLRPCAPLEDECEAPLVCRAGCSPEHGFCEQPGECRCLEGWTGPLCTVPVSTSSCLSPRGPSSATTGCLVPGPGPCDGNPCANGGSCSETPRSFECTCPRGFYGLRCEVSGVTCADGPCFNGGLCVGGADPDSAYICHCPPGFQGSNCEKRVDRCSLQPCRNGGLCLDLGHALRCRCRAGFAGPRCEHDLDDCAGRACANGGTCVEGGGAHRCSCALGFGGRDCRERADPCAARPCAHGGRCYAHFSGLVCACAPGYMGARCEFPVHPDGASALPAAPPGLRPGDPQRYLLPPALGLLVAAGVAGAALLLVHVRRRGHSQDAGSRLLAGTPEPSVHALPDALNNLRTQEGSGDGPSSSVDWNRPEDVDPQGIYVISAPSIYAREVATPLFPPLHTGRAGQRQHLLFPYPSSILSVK
# Biological target: T1, human DLL3 (Delta-like ligand 3)
# Assay: flow cytometry, sdAb-Fc titrated on SHP-77 cells (DLL3 positive), APC anti-human Fc secondary
# Method: FIGS. 2A-L set forth a series of graphs depicting the ability of sdAb and humanized variants thereof targeting DLL3 to bind cell surface DLL3.
# Specificity and relative affinity were assessed for purified sdAb-Fcs on DLL3-expressing cells. […] A titration series of the fusion protein was incubated with the DLL3-expressing cell lines (approximately 2.5×10⁴ to 5×10⁴ cells/well) for 30 minutes at 4 degrees Celsius in FACS Buffer (PBS 1% BSA, 0.1% NaN₃ pH 7.4) in 96-well plates. Following three wash steps in FACS buffer, an APC-conjugated anti-human Fcγ specific secondary antibody (Jackson ImmunoResearch) was added and incubated for 30 minutes at 4 degrees Celsius. Following three additional wash steps in FACS buffer bound antibody was detected via flow cytometry (IQue Intellicyte).
Binder,binding result,EC50 (read off the curve) [nM]
"hz10D9v7 (Fc fusion, tested as VHH-human Fc; Fc not specified) VHH: EVQLVESGGGEVQPGGSLRLSCAASGSIFSINAMGWYRQAPGKQRELVAGFTGDTNTIYAESVKGRFTISRDNAKNTVYLQMSSLRAEDTAVYYCAADVQLFSRDYEFYWGQGTLVTVKP",binds,
"hz3C5v1 (Fc fusion, tested as VHH-human Fc; Fc not specified) VHH: EVQLVESGGGEVQPGGSLRLSCAASGSIFSINAMGWYRQAPGKQRELVAGFTGDGSTKYAESVKGRFTISRDNAKNTVYLQMSSLRAEDTAVYYCAADVQLLNSDYEFYWGQGTLVTVKP",binds,
"hz3C5v2 (Fc fusion, tested as VHH-human Fc; Fc not specified) VHH: EVQLVESGGGEVQPGGSLRLSCAASGSIFSINAMGWYRQPPGKQRELVAGFTGDGSTKYAESVKGRFTISRDNAKNTVYLQMSSLRAEDTAVYYCAADVQLLNSDYEFYWGQGTLVTVKP",,~0.7
"hz3C5v3 (Fc fusion, tested as VHH-human Fc; Fc not specified) VHH: EVQLVESGGGEVQPGGSLRLSCAASGSIFSINAMGWYRQAPGKQRELVAGFTGDTSTKYAESVKGRFTISRDNAKNTVYLQMSSLRAEDTAVYYCAADVQLLNSDYEFYWGQGTLVTVKP",binds,
"hz3C5v4 (Fc fusion, tested as VHH-human Fc; Fc not specified) VHH: EVQLVESGGGEVQPGGSLRLSCAASGSIFSINAMGWYRQAPGKQRELVAGFTGEGSTKYAESVKGRFTISRDNAKNTVYLQMSSLRAEDTAVYYCAADVQLLNSDYEFYWGQGTLVTVKP",binds,
"hz3C5v5 (Fc fusion, tested as VHH-human Fc; Fc not specified) VHH: EVQLVESGGGEVQPGGSLRLSCAASGSIFSINAMGWYRQAPGKQRELVAGFTGDGSTKYAESVKGRFTISRDNAKNTVYLQMSSLRAEDTAVYYCAADVQLLSSDYEFYWGQGTLVTVKP",binds,
"hz3C5v6 (Fc fusion, tested as VHH-human Fc; Fc not specified) VHH: EVQLVESGGGEVQPGGSLRLSCAASGSIFSINAMGWYRQAPGKQRELVAGFTGDGSTKYAESVKGRFTISRDNAKNTVYLQMSSLRAEDTAVYYCAADVQLLTSDYEFYWGQGTLVTVKP",binds,
"hz3C5v7 (Fc fusion, tested as VHH-human Fc; Fc not specified) VHH: EVQLVESGGGEVQPGGSLRLSCAASGSIFSINAMGWYRQAPGKQRELVAGFTGDGSTKYAESVKGRFTISRDNAKNTVYLQMSSLRAEDTAVYYCAADVQLLQSDYEFYWGQGTLVTVKP",binds,
"hz3C5v8 (Fc fusion, tested as VHH-human Fc; Fc not specified) VHH: EVQLVESGGGEVQPGGSLRLSCAASGSIFSINAMGWYRQAPGKQRELVAGFTGDGSTKYAESVKGRFTISRDNAKNTVYLQMSSLRAEDTAVYYCAADVQLLNTDYEFYWGQGTLVTVKP",binds,
"hz3G3v1 (Fc fusion, tested as VHH-human Fc; Fc not specified) VHH: EVQLVESGGGEVQPGGSLRLSCAASGSIFSINAMGWYRQAPGKQRELVAGFTGDGMTKYAESVKGRFTISRDNAKNTVYLQMSSLRAEDTAVYYCAADVFTDRDHVDWYWGQGTLVTVKP",binds,
"hz10D9v1 (Fc fusion, tested as VHH-human Fc; Fc not specified) VHH: EVQLVESGGGEVQPGGSLRLSCAASGSILSINAMGWYRQAPGKQREMVAGFTGDGNTIYAESVKGRFTISRDNAKNTVYLQMSSLRAEDTAVYYCAADVQLFSRDYEFYWGQGTLVTVKP",binds,
"hz10D9v2 (Fc fusion, tested as VHH-human Fc; Fc not specified) VHH: EVQLVESGGGEVQPGGSLRLSCAASGSILSINAMGWYRQAPGKQRELVAGFTGDGNTIYAESVKGRFTISRDNAKNTVYLQMSSLRAEDTAVYYCAADVQLFSRDYEFYWGQGTLVTVKP",binds,
"hz10D9v3 (Fc fusion, tested as VHH-human Fc; Fc not specified) VHH: EVQLVESGGGEVQPGGSLRLSCAASGSILSINAMGWYRQAPGKQREMVAGFTGEGNTIYAESVKGRFTISRDNAKNTVYLQMSSLRAEDTAVYYCAADVQLFSRDYEFYWGQGTLVTVKP",binds,
